# According to US6747005:
# B1: recombinant CBP HAT domain (amino acids 1098-1758) (protein)
# chain: TLEALYRQDPESLPFRQPVDPQLLGIPDYFDIVKNPMDLSTIKRKLDTGQYQEPWQYVDDVWLMFNNAWLYNRKTSRVYKFCSKLAEVFEQEIDPVMQSLGYCCGRKYEFSPQTLCCYGKQLCTIPRDAAYYSYQNRYHFCEKCFTEIQGENVTLGDDPSQPQTTISKDQFEKKKNDTLDPEPFVDCKECGRKMHQICVLHYDIIWPSGFVCDNCLKKTGRPRKENKFSAKRLQTTRLGNHLEDRVNKFLRRQNHPEAGEVFVRVVASSDKTVEVKPGMKSRFVDSGEMSESFPYRTKALFAFEEIDGVDVCFFGMHVQNTALIAPHQIQGRVYISYLDSIHFFRPRCLRTAVYHEILIGYLEYVKKLGYVTGHIWACPPSEGDDYIFHCHPPDQKIPKPKRLQEWYKKMLDKAFAERIINDYKDIFKQANEDRLTSAKELPYFEGDFWPNVLEESIKELEQEEEERKKEESTAASETPEGSQGDSKNAKKKNNKKTNKNKSSISRANKKKPSMPNVSNDLSQKLYATMEKHKEVFFVIHLHAGPVISTQPPIVDPDPLLSCDLMDGRDAFLTLARDKHWEFSSLRRSKWSTLCMLVELHTQGQDRFVYTCNECKHHVETRWHCTVCEDYDLCINCYNTKSHTHKMVKWGLGLDDEGSSQG
# How the values were obtained:
# [1] = target: Importin α7
# [2] = target: Rch1 N-terminal fragment (residues 1-95), P52292
# [3] = target: recombinant Importin α Rch1, full-length, P52292
# [4] = target: ΔN-Rch1 lacking the Importin β binding site, P52292
protein,measurement,setting,value
B1,acetylation (analysis as in the first experiment),[1],"CBP was shown to acetylate Importin α family members, Rch1 and Importin α7"
same,"acetylation ([14-C]-acetyl coA, SDS-PAGE, blot exposed to film)",[2],Only the full-length Rch1 and the N-terminal 1-95 fragment showed acetylation.
same,"acetylation ([14-C]-acetyl coA, SDS-PAGE, blot exposed to film)",[3],Only the full-length Rch1 and the N-terminal 1-95 fragment showed acetylation.
same,acetylation (analysis as in the first experiment),[3],"CBP was shown to acetylate Importin α family members, Rch1 and Importin α7"
same,"acetylation ([14-C]-acetyl coA, SDS-PAGE, blot exposed to film)",[4],Only the full-length Rch1 and the N-terminal 1-95 fragment showed acetylation. (ΔN-Rch1 showed none)
